Assay results from patent publication US20090291439.

Akt1, sequence (P31749 whole entry): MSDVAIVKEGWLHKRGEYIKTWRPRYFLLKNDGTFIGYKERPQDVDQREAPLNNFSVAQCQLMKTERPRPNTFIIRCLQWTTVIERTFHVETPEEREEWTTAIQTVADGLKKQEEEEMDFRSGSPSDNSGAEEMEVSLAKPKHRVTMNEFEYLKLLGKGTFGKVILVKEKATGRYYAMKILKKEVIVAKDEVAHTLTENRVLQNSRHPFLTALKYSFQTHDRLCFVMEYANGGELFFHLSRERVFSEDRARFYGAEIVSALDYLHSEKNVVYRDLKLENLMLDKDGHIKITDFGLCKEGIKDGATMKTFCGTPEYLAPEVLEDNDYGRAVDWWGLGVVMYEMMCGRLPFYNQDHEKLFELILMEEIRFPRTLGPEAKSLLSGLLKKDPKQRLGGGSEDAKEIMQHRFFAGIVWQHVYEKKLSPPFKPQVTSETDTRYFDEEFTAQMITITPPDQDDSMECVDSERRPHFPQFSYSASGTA

B1: human DUSP13 protein (protein)
chain: MDSLQKQDLRRPKIHGAVQASPYQPPTLASLQRLLWVRQAATLNHIDEVWPSLFLGDAYAARDKSKLIQLGITHVVNAAAGKFQVDTGAKFYRGMSLEYYGIEADDNPFFDLSVYFLPVARYIRAALSVPQGRVLVHCAMGVSRSATLVLAFLMICENMTLVEAIQTVQAHRNICPNSGFLRQLQVLDNRLGRETGRF
B1 was tested, and the “dephosphorylation of phosphorylated Ser-473 (FIG. 15, right, second panel from the top)” value (Akt1) was “directly dephosphorylates the phosphorylated Ser-473 thereof” and the “dephosphorylation of phosphorylated Ser-473 (FIG. 15, right, second panel from the top)” value (Akt2) was “directly dephosphorylates the phosphorylated Ser-473 thereof”.
